{
  "source": "the DeepSol protein solubility set",
  "data": [
    {"assay": "soluble on expression in E. coli; label from the status in PepcDB or PDB records", "values": [
      {"sequence": "MIKVVVRKRPLSELEKKKKDSDIITVKNNCTLYIDEPRYKVDMTKYIERHEFIVDKVFDDTVDNFTVYENTIKPLIIDLYENGCVCSCFAYGQTGSGKTYTMLGSQPYGQSDTPGIFQYAAGDIFTFLNIYDKDNTKGIFISFYEIYCGKLYDLLQKRKMVAALENGKKEVVVKDLKILRVLTKEELILKMIDGVLLRKIGVNSQNDESSRSHAILNIDLKDINKNTSLGKIAFIDLAGSERGADTVSQNKQTQTDGANINRSLLALKECIRAMDSDKNHIPFRDSELTKVLRDIFVGKSKSIMIANISPTISCCEQTLNTLRYSSRVKNKGNSKLEGKPIPNPLLGLDSSRTGHHHHHH", "soluble on expression in E. coli": "soluble"},
      {"sequence": "MIVIKPFILACLIVKKRKDILGKCLYSLESIGGEIIIVDNGSTDKKKEIAQKLTDKVYDFKWMNNFVEARNFAASKVSGTWIIAVDADECIDINNFVAAMEEIKSYKDKISIFLVEIMSFVGDNGEEITVNTMARLYKNDGSVYFLWWNV", "soluble on expression in E. coli": "not soluble"},
      {"sequence": "MEEMRVIGLLSSGIDSPVAIHLMASRGAEVYPLHFRQDEIKEKKARKLVSRLKEIHGEKVKDLKVVDALKVQGPVFEKLRELKREKWICIFCKYTMYMVAEKYAREVGAEAIVTGDSLGQVASQTLDNLMVISTATNLPIIRPLIALDKEEIVRIAKEIGTFEISIENEPPCPFLPKFPVVRAGFSQFRKILEEIREVLPK", "soluble on expression in E. coli": "soluble"},
      {"sequence": "MGSDKIHHHHHHMEGGAMMLLEVKNVTKKFGDKVVLKNISFTLEEGESLGILGKSGAGKSVLLHMLRGMDGYEPTEGQIIYHVSYCEKCGYVDVPSKAGTPCKKCGNELKKIEVDFWNDKKYTYNLKRKIAIMLQRTFALYGEKTVLENILEALHQAGYEGKEAIDMALKLIKMVKLEHRITHIARDLSGGEKQRVVLARQIAKEPFIFLADEPTGTLDPQTAKLVHSALKELVIKNKISLILTSHWPEVIAELTEKAIWLDKGEIIMEGTSEEVVNKFMETVKEFKKPETEVEIKEDIIKLENVSKHYCSVERGVIKAVDNVTLNIREREIFGLVGTSGAGKTTLAKIIAGVLPPSKGKYWFRVGDEWVDMTKPGPMGRGRAKRYIGILFQEYALYPHRTILENLTEAIGLELPDEFARMKAVYTLVSVGFSEEEAEEILDKYPHELSVGERHRCALAQVLIKEPRVVILDEPTGTMDPITRNTVAESIHKSRIELEQTYIIVSHDMDFVLNVCDRAGLMRNGKLIKVGKPEEIVALLTEEEKQEMFGQK", "soluble on expression in E. coli": "not soluble"},
      {"sequence": "MESNEDVERLLCQKYPGLAAELQPSGACIIRGVLGSEDTWRRLKLYLPHHPALHGFQLYVQESLEYKLYTSANLKLQDDWLLEDFLDHLPKILPAQKAPTVPKELCREGNIYYDILALYKSNEYCLQVDEACSMIRFSEFTDFEQHYLELKIPSLLLLDHSLPDCVSLGEMLTKSAGNLEEALNLFRKLLEDLRPFYDNFMDIDELCHVLQPSPISSKHKTRLFPLKDRVYLKLTIADPFACIASMSLKIIGPTEEVARLRHVLSDGLSNWDSEMNIHKNLLRMFDLCYFPMPDWSDGPKLDEEDNEELRCNICFAYRLDGGEVPLVSCDNAKCVLKCHAVCLEEWFKTLMDGKTFLEVSFGQCPFCKAKLSTSFAALLND", "soluble on expression in E. coli": "soluble"},
      {"sequence": "MGHQNAAVSENQNHDDGAASSPGFKLVGFSKFVRKNPKSDKFKVKRFHHIEFWCGDATNVARRFSWGLGMRFSAKSDLSTGNMVHASYLLTSGDLRFLFTAPYSPSLSAGEIKPTTTASIPSFDHGSCRSFFSSHGLGVRAVAIEVEDAESAFSISVANGAIPSSPPIVLNEAVTIAEVKLYGDVVLRYVSYKAEDTEKSEFLPGFERVEDASSFPLDYGIRRLDHAVGNVPELGPALTYVAGFTGFHQFAEFTADDVGTAESGLNSAVLASNDEMVLLPINEPVHGTKRKSQIQTYLEHNEGAGLQHLALMSEDIFRTLREMRKRSSIGGFDFMPSPPPTYYQNLKKRVGDVLSDDQIKECEELGILVDRDDQGTLLQIFTKPLGDRPTIFIEIIQRVGCMMKDEEGKAYQSGGCGGFGKGNFSELFKSIEEYEKTLEAKQLVG", "soluble on expression in E. coli": "soluble"},
      {"sequence": "MDDVRLHAIYQDITRDYLPPASLNHLMLLSKQTQHKLSFKSAPIPDLQPFFKNFTSKTPGSAKESPCSSTAKISSSISISSQCIFNVVILSFVFTSQNLNLPSHPALHNVSPESLNDRLMTQLECANSPRLACELWVGTDKEPILSPNSVSYRVMQPNEFES", "soluble on expression in E. coli": "soluble"},
      {"sequence": "MQARYRDWGIFKYWFRAVEKNAPWVHKIFIITDHQNPKFLNKHSSKIVFVNHEDFIPNEYLPTFNSDAIEIGIQNIPGLSEHFVFFNDDMFINKPVKPIDFFDGNIPKDSGVMGPQFPISNSITHITVNNMEIINKYFLKKKVLRKYFFKFFNWRYGKDNIRTATALPWQVFIGFYDMHIPISFLKSTFDNVWSEVGNLLSQNYQHRFRSQLDYSVWLMRYFQLASGNFFPRRTRFGKYYNLGEQTEEIINDIKTGKHALIVLNDQESINDYPYEKKLVNEVFERRYSRLEHHHHHH", "soluble on expression in E. coli": "soluble"},
      {"sequence": "MPIAQLLELWKKIEVEPMEIETTEEDLNLDVGPATEDTAEEGKSDSAACKTKVAGSVEEEGVVKEIDISHHVKEGFEKADPSQFELLKVLGQGSYGKVFLVRKVKGSDAGQLYAMKVLKKATLKVRDRVRSKMERDILAEVNHPFIVKLHYAFQTEGKLYLILDFLRGGDLFTRLSKEVMFTEEDVKFYLAELALALDHLHSLGIIYRDLKPENILLDEEGHIKITDFGLSKEAIDHDKRAYSFCGTIEYMAPEVVNRRGHTQSADWWSFGVLMFEMLTGSLPFQGKDRKETMALILKAKLGMPQFLSGEAQSLLRALFKRNPCNRLGAGIDGVEEIKRHPFFVTIDWNTLYRKEIKPPFKPAVGRPEDTFHFDPEFTARTPTDSPGVPPSANAHHLFRGFSFVASSLIQEPSQQDLHKVPVHPIVQQLHGNNIHFTDGYEIKEDIGVGSYSVCKRCVHKATDTEYAVKIIDKSKRDPSEEIEILLRYGQHPNIITLKDVYDDGKFVYLVMELMRGGELLDRILRQRYFSEREASDVLCTITKTMDYLHSQGVVHRDLKPSNILYRDESGSPESIRVCDFGFAKQLRAGNGLLMTPCYTANFVAPEVLKRQGYDAACDIWSLGILLYTMLAGFTPFANGPDDTPEEILARIGSGKYALSGGNWDSISDAAKDVVSKMLHVDPHQRLTAMQVLKHPWVVNREYLSPNQLSRQDVHLVKGAMAATYFALNRTPQAPRLEPVLSSNLAQRRGMKRLTSTRL", "soluble on expression in E. coli": "soluble"},
      {"sequence": "MSAVTYTFLGPQGTFTEAALMQVPGAADATRIPCTNVNTALERVRAGEADAAMVPIENSVEGGVTATLDAIATGQELRIIREALVPITFVLVARPGVELSDIKRISTHGHAWAQCRLWVDEHLPNADYVPGSSTAASAMGLLEDDAPYEAAICAPLIAAEQPGLNVLAEDIGDNPDAVTRFILVSRPGALPERTGADKTTVVVPLPEDHPGALMEILDQFASRGVNLSRIESRPTGQYLGHYFFSIDADGHATDSRVADALAGLHRISPATRFLGSYARADKQPAVVAPHTSDAAFASAHAWVDSILKGS", "soluble on expression in E. coli": "soluble"},
      {"sequence": "MGSDKIHHHHHHMTQYEVDIMYEVKLDAFNGPLDLLLHLIQKFEIDIYDIPMQALTEQYMQYVHAMKQLEINIASEYLVLASELLMIKSKMLLPQSTSDMDVDDDPREDLVGRLIEYQNYKEYTAILNDMKEERDFYFTKRPTDLSHLETDESWDPNHTIDLTELIVAYQRVKNRVELNTPKSVEIRKETFTIQQATEQVTSRLKDKDHFNFFSLFTFSEPIEQVVTHFLAILEMSKAGIINIEQQRNFEDINIIRGVNYHFG", "soluble on expression in E. coli": "not soluble"},
      {"sequence": "GSHMDSEIQMENLVERKHHRLARSERSGISDRDAKPTASIRDQLHTIVYRYPPTYVLSSEEQDLVWKFRFYLSSHKKALTKFLKCINWKLEDEVTQALWMLANWAPMDVEDALELLSPTFTHPQVRKYAVSRLAQAPDEDLLLYLLQLVQALKYEDPRHIVHLHGCIFPERDVVRSILDDNGSLLDQSSLSDLSATSSGLHASVIPANQRAASVLAAIKSDKSVSPGSAGGSGSGGQGSVALPNPSAPATPGSSSLPCDSNSNALMLAEGISFGSVPANLCTFLIQRACTNATLANYFYWYLSIEVEEVESVRKQDERAHDMYAMVLKMFLKVLENGNFNLRGIFYNLRKQRRFIDELVKLVKLVAKEPGNRNKKTEKFQKLLAEQDMFKVNFTNFEPIPFPLDPEIYITKIVPMRTSLFKSALMPAKLTFVTSIAHHEYAAIFKHGDDLRQDQLILQMITLMDKLLRRENLDLKLTPYKVLATSSKHGFLQYVDSCTVAEVLAREGNIHNFFRKHHPCDNGPYGISAEVMDTYIKSCAGYCVITYLLGVGDRHLDNLLLTTNGKLFHIDFGYILGRDPKPMPPPMKLSKEMVEAMGGISSEHHHEFRKQCYTAYLHLRRHANVMLNLFSLMVDATVPDIALEPDKAVKKVEENLQLGLTDEEAVQHLQSLLDVSITAVMPALVEQIHRFTQYWRK", "soluble on expression in E. coli": "soluble"},
      {"sequence": "MGSDKIHHHHHHMNILAPVSSVKEAEQLIAHGADELYCGIGLGALKNRPGNTDREIWINRRESGNANIPDLESLSLLVDHAHAQGKKVYLTLNQPGYAQDLYGEILAFVREVKKSCQVDAFIVADPGLIRMLIGKEPDMVIHVSSLAGVLNSSAVLFFKKLGVKRIVFPRYLEAETLKKIMDRAGEDLEYEVFILNDGCMFEESHCHVSHQFGGAFCHNPAWRYKLIPPEEGGILETWKLRNLKIAGETFEGNVEEWKRWQWLGIKNGGGYIGAKYPLGMCGLCTLPEYRDMGITSLKIVGREAPLSKKIKSVQLLKKVLDYQREEHLPDEVRDYARRTKGARLLCGSGYMCYER", "soluble on expression in E. coli": "not soluble"},
      {"sequence": "MSLKRFVAEKMDNQDHWDLNIAPLTNKHIAIVGAGPAGAQAAIELRRQGHEVTIYEKLDVYGGMMRVGIPEYRLPRDVIDFEYSYLAMLGIKTQFGVEIGKDISFDTLRSEHDAVILAHGAHVGSIIPLPGHDNDGVFSAVEYLKEISETRQFPRACKRVMVIGGGDVAMDCARSSWRIGASDVYQCSLESLESLPASQIEIDESLEEGVEFNAGWGPVAIEHENGKVTGITIKKVLSIFDEQGNFAPQYSEESKTISVDTVVFATGQIVADITDGALEQTRGGRYVVDKQTLASSLEDVFVAGDACGGNIVIEAMALGRKAAMSVERFLTARPLTEDRDFEQEYSYSSRLDVPLPKGTVDTPRLHGELRDAEERKQDFAQVDLGFTEEQIKQEASRCLQCSCKLCMTECIMMNDFSDCPKTIFSDFVNNKSMDPLLAYSCNACDQCTIVCPKDFPMKEMFLGARTDFVKANNGESPMPGHKAINMHQKLGFSKIFTMAKRAVSTKEGHHHHHH", "soluble on expression in E. coli": "soluble"},
      {"sequence": "TEQERLELEAAAFRRLVAHLDSRKDVQNIDLMNLSGFCRNCLSKWYKAAADEKHIDITLDDAREVVYGMPYSEWKANYQKEASAEQQAAFVKESKH", "soluble on expression in E. coli": "not soluble"},
      {"sequence": "DGTADKTKGEVSNDKVSTDEKHVVSLDPNDQSKGKGVVIDNVANGDISATSTDAINGSQLYAVAKGVTNLAGQVNNLEGKVNKVGKRADAGTASALAASQLPQATMPGKSMVAIAGSSYQGQNGLAIGVSRISDNGKVIIRLSGTTNSQGKTGVAAGVGYQW", "soluble on expression in E. coli": "soluble"},
      {"sequence": "MAGDPMPKNKILIYLLSTTLVLPTLVSPTAYADTPQKDTTAKTTSHDSKKSNDDETSKDTTSKDIDKADNNNTSNQDNNDKKFKTIDDSTSDSNNIIDFIYKNLPQTNINQLLTKNKYDDNYSLTTLIQNLFNLNSDISDYEQPRNGEKSTNDSNKNSDNSIKNDTDTQSSKQDKADNQKAPKSNNTKPSTSNKQPNSPKPTQPNQSNSQPASDDKANQKSSSKDNQSMSDSALDSILDQYSEDAKKTQKDYASQSKKDKNEKSNTKNPQLPTQDELKHKSKPAQSFNNDVNQKDTRATSLFETDPSISNNDDSGQFNVVDSKDTRQFVKSIAKDAHRIGQDNDIYASVMIAQAILESDSGRSALAKSPNHNLFGIKGAFEGNSVPFNTLEADGNKLYSINAGFRKYPSTKESLKDYSDLIKNGIDGNRTIYKPTWKSEADSYKDATSHLSKTYATDPNYAKKLNSIIKHYQLTQFDDERMPDLDKYERSIKDYDDSSDEFKPFREVSDSMPYPHGQCTWYVYNRMKQFGTSISGDLGDAHNWNNRAQYRDYQVSHTPKRHAAVVFEAGQFGADQHYGHVAFVEKVNSDGSIVISESNVKGLGIISHRTINAAAAEELSYITGKLEHHHHHH", "soluble on expression in E. coli": "soluble"}
    ]}
  ]
}
